Experimental data reported in PMC8073976, “Towards Targeted Alpha Therapy with Actinium-225: Chelators for Mild Condition Radiolabeling and Targeting PSMA—A Proof of Concept Study” (Cancers, 2021).

Type: physicochemical
Conditions: pH 6
Text: Unfortunately, a suitable reversed-phase iTLC system for the ligands mcp-M-PSMA and mcp-D-PSMA was not found so far to determine the radiochemical yields. The resolution of our standard system was not efficient, most likely due to the bigger size of these molecules compared to the basic chelators, different protonation steps and possible conformational structures. […] Additionally, the stability of the ^225Ac-labeled conjugates in acetate buffer was investigated by HPLC analyses over a period of ten days.
Actinium-225 was purchased as a 0.1 M HCl solution from ITM Munich and used without purification. Stem solutions of all ligands were prepared in concentrations of 10^−2 M and diluted to 10^−6 M using 0.2 M ammonium acetate buffer at pH 6. For concentration-dependent labeling experiments, 10 µL of each ligand stem solution was incubated with 100 kBq of actinium-225 (1–5 µL) and the total volume was adjusted to 100 µL with 0.2 M ammonium acetate buffer at pH 6. For stability analyses, 50 µL of the buffer volume were replaced by 50 µL of 0.2 M ascorbic acid or 50 µL of 2,5-dihydroxy benzoic acid, respectively. […]
All samples were incubated for one hour at room temperature and analyzed afterward. […] Radioactivity was measured in Isomed 2100 dose calibrator. Low radioactivity count rates were determined in Isomed 2160 sodium iodide detector. […]

O=C(O)CC[C@H](NC(=O)N[C@H](CCCCNC(=O)[C@@H](Cc1ccc2ccccc2c1)NC(=O)C1CCC(CNC(=O)CCCCn2cc(COc3cc(CN4CCOCCOCCN(Cc5cccc(C(=O)O)n5)CCOCCOCC4)nc(C(=O)O)c3)nn2)CC1)C(=O)O)C(=O)O (mixture of isomers) [mcp-M-PSMA, (3RS,10RS,14S)-1-((1s,4S)-4-((5-(4-(((2-Carboxy-6-((16-((6-carboxypyridin-2-yl)methyl)-1,4,10,13-tetraoxa-7,16-diazacyclooctadecan-7-yl)methyl)pyridin-4-yl)oxy)methyl)-1H-1,2,3-triazol-1-yl)pentanamido)methyl)cyclohexyl)-3-(naphthalen-2-ylmethyl)-1,4,12-trioxo-2,5,11,13-tetraazahexadecane-10,14,16-tricarboxylic acid]
stable in acetate buffer: at least 48 h
